Assay results: US12129294B2, “Methods of treatment of diseases in which IL-13 activity is detrimental using anti-IL-13 antibodies” (AbbVie Inc., priority 2016, dated 2024)
Where “and” joins values, the source holds several entries; their conditions need not be identical. Equal values may be shown once.

Tests used:
[1] = system: subjects with symptomatic eosinophilic esophagitis (EoE); experiment: Phase 2 study in EoE patients: dysphagia symptom composite diary score (daily symptom diary, DSD); format: in vivo, human; set-up: dysphagia symptom composite diary score, Mean change / dysphagia symptom composite diary score, Mean / dysphagia symptom composite diary score, Median: scale not given here; details: for dysphagia symptom composite diary score, Mean change / dysphagia symptom composite diary score, LSMD versus placebo: Change to Week 16
Text: Safety was monitored throughout the study. […] The study was powered for the primary endpoint. […]

other cytokines = experiment: Binding of the antibody to other cytokines
[2] = system: subjects with symptomatic eosinophilic esophagitis (EoE); experiment: Phase 2 study in EoE patients: EoE endoscopic reference score (EREF); format: in vivo, human; details: treatment with RPC4046
Method: (§1) Safety was monitored throughout the study. […] The study was powered for the primary endpoint.
In further analysis, the mean eosinophilic esophagitis endoscopic reference score (EREF) in subjects at week 16 was analyzed for placebo and the two treatment arms. The EREF score is an additional secondary endpoint that is evaluated based on the presence of inflammatory markers (e.g., being positive for edema, exudates and/or furrows) and/or remodeling markers (e.g., being positive for fixed rings and/or strictures).
The results of the EREF study was further inspected by analyzing composite EREF score for inflammatory markers or remodeling markers.

[3] = target: IL-13 sequence variant, R110Q (Homo sapiens, UniProt P35225); experiment: Binding of the antibody to IL-13 variant
[4] = system: subjects with symptomatic eosinophilic esophagitis (EoE); experiment: Phase 2 study in EoE patients: mean esophageal eosinophil count in the 5 most inflamed HPF of esophageal biopsies; format: in vivo, human; details: for mean esophageal eosinophil count (EEOC Mean BL): baseline; for mean change from baseline in mean esophageal eosinophil count: baseline to week 16; for mean esophageal eosinophil count (EEOC Mean post): post treatment (week 16)
Text: as §1
Additionally, various safety and tolerability endpoints are also measurable.
To maximize consistency, biopsies were obtained from proximal and distal esophagus (i.e., 4 biopsy fragments from each level) at screening. Additional biopsies from mid-esophagus was encouraged and effort was made to obtain subsequent biopsies from the same levels. The biopsies were blinded and read by single central pathologist. To be eligible for trial, subjects were evaluated for peak eosinophil count of ≥15/HPF, from 2 of 3 (proximal, mid-, and/or distal) levels of the esophagus at the screening endoscopy.

[5] = both low dose (180 mg) and high dose (360 mg)

Chain of IL-13 sequence variant, R110Q (P35225 35-146, stated change not applied): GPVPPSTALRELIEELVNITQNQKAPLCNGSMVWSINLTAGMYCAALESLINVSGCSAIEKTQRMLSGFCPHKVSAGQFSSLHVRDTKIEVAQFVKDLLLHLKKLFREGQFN

B1: RPC4046: recombinant humanized, high-affinity, selective anti-IL-13 monoclonal antibody; heavy chain variable region SEQ ID NO: 2, light chain variable region SEQ ID NO: 3 (antibody, V domains shown)
VH: EVTLRESGPGLVKPTQTLTLTCTLYGFSLSTSDMGVDWIRQPPGKGLEWLAHIWWDDVKRYNPALKSRLTISKDTSKNQVVLKLTSVDPVDTATYYCARTVSSGYIYYAMDYWGQGTLVTVSS
VL: DIQMTQSPSSLSASVGDRVTISCRASQDIRNYLNWYQQKPGKAPKLLIFYTSKLHSGVPSRFSGSGSGTDYTLTISSLQPEDIATYYCQQGNTLPLTFGGGTKVEIK
- dysphagia symptom composite diary score, Mean ([1]; 180 mg, ITT, Baseline): 27.63 and 27.6
- dysphagia symptom composite diary score, Median ([1]; 180 mg, ITT, Baseline): 28.5
- dysphagia symptom composite diary score, Mean change ([1]; 180 mg, ITT): −5.3
- dysphagia symptom composite diary score, LSMD versus placebo ([1]; 180 mg, ITT, ANCOVA): 0.02
- dysphagia symptom composite diary score, Mean ([1]; 180 mg, ITT, Week 16): 21.9
- dysphagia symptom composite diary score, Median ([1]; 180 mg, ITT, Week 16): 26.1
- dysphagia symptom composite diary score, Mean change ([1]; 180 mg, non-steroid-refractory pts): −10.0
- dysphagia symptom composite diary score, LSMD versus placebo ([1]; 180 mg, non-steroid-refractory): 0.93
- dysphagia symptom composite diary score, Mean change ([1]; 180 mg, steroid-refractory pts): −1.3
- dysphagia symptom composite diary score, LSMD versus placebo ([1]; 180 mg, steroid-refractory): −1.3
- dysphagia symptom composite diary score, Mean ([1]; 360 mg, ITT, Baseline): 29.03 and 29
- dysphagia symptom composite diary score, Median ([1]; 360 mg, ITT, Baseline): 27.5
- dysphagia symptom composite diary score, Mean change ([1]; 360 mg, ITT): −13.3
- dysphagia symptom composite diary score, LSMD versus placebo ([1]; 360 mg, ITT, ANCOVA): −6.50
- dysphagia symptom composite diary score, Mean ([1]; 360 mg, ITT, Week 16): 15.3
- dysphagia symptom composite diary score, Median ([1]; 360 mg, ITT, Week 16): 6.2
- dysphagia symptom composite diary score, Mean change ([1]; 360 mg, non-steroid-refractory pts): −14.0
- dysphagia symptom composite diary score, LSMD versus placebo ([1]; 360 mg, non-steroid-refractory): −3.1
- dysphagia symptom composite diary score, Mean change ([1]; 360 mg, steroid-refractory pts): −12.3
- dysphagia symptom composite diary score, LSMD versus placebo ([1]; 360 mg, steroid-refractory): −12.0
- mean dysphagia symptom composite diary score at week 16 compared to the controls [1, 5]: reduction
- mean dysphagia symptom composite diary score in steroid-refractory subjects ([1]; subgroup analysis, 180 mg and 360 mg, week 16): dose-dependent reduction
- benefit on dysphagia composite diary score, steroid refractory versus non-steroid-refractory subgroup ([1]; subgroup analysis, over 16 weeks): steroid refractory sub-group benefited more
- binding to other cytokines (other cytokines): does not bind to other cytokines
- EREF total score at week 16 [2]: net lowering of EREF score
- binding to IL-13 sequence variant, R110Q [3]: binds
- mean esophageal eosinophil count (EEOC Mean BL) ([4]; 180 mg (LD)): 116.6 cells/hpf and 116.7 cells/hpf
- mean change from baseline in mean esophageal eosinophil count ([4]; 180 mg (LD)): −94.8 cells/hpf
- mean esophageal eosinophil count (EEOC Mean post) ([4]; 180 mg): 24.8 cells/hpf
- mean esophageal eosinophil count (EEOC Mean BL) ([4]; 360 mg (HD)): 122.6 cells/hpf
- mean change from baseline in mean esophageal eosinophil count ([4]; 360 mg (HD)): −99.9 cells/hpf
- mean esophageal eosinophil count (EEOC Mean post) ([4]; 360 mg): 25.5 cells/hpf
- mean esophageal eosinophil count at week 16 compared to the controls [4, 5]: statistically significant reduction
